This is an account of results in patent US10385103B2, “Cell-permeable (ICP)-SOCS3 recombinant protein and uses thereof” (CELLIVERY THERAPEUTICS, INC., priority 2014, dated 2019).

Series [1] has as its system STAT1. The series can be described thus: Inhibition of IFN-γ-induced STAT phosphorylation in PANC-1 cells (western blot), STAT1. The series is classed as cell-based. To be noted: PANC-1, 10 ng/ml IFN-γ 15 min, 10 μM protein 2 hrs. As for the experimental part: (§1) PANC-1 Cells (KCLB, Seoul, South Korea) were treated with 10 ng/ml IFN-γ (R&D systems, Abingdon, UK) for 15 min and treated with either DMEM (vehicle) or 10 μM aMTD/SD-fused SOCS3 recombinant proteins for 2 hrs. The cells were lysed in RIPA lysis buffer (Biosesang, Seongnam, Korea) containing proteinase inhibitor cocktail (Roche, Indianapolis, Ind., USA), incubated for 15 min at 4° C., and centrifuged at 13,000 rpm for 10 min at 4° C. Equal amounts of lysates were separated on 10% SDS-PAGE gels and transferred to a nitrocellulose membrane. The membranes were blocked using 5% skim milk in TBST and for western blot analysis incubated with the following antibodies: anti-phospho-STAT1 (Cell Signaling Technology, USA) and anti-phospho-STAT3 (Cell Signaling Technology, USA), then HRP conjugated anti-rabbit secondary antibody (Santacruz).

In series [2] the test system is STAT3. Kind of series: Inhibition of IFN-γ-induced STAT phosphorylation in PANC-1 cells (western blot), STAT3. The series is classed as cell-based. As for the experimental part:
as §1
as §1, with “(vehicle) or 1, 5, 10 μM” for “(vehicle) or 10 μM”, “following antibodies: anti-phospho-STAT3 (Cell” for “following antibodies: anti-phospho-STAT1 (Cell Signaling Technology, USA) and anti-phospho-STAT3 (Cell”
Background: In western blotting, separated proteins are transferred to a membrane and probed.

The test system of series [3] is TNF-α. The series can be described thus: LPS/IFN-γ-induced cytokine secretion in peritoneal macrophages (cytometric bead array), TNF-α. Format: cell-based, C3H/HeJ mice. As to conditions: 10 μM protein; IFN-γ and LPS. The protocol: Peritoneal macrophages were obtained from C3H/HeJ mice (Doo-Yeol Biotech Co. Ltd. Korea) Peritoneal macrophages were incubated with 10 μM SOCS3 recombinant proteins (1:HS3, 2:HM165S3, 3:HM165S3A and 4:HM165S3B, respectively) for 1 hr at 37° C. and then stimulated them with LPS (Lipopolysaccharide)(500 ng/ml) and/or IFN-γ (100 U/ml) without removing iCP-SOCS3 proteins for 3, 6, or 9 hrs. The culture media were collected, and the extracellular levels of cytokine (TNF-α, IL-6) were measured by a cytometric bead array (BD Pharmingen, San Diego, Calif., USA) according to the manufacturer's instructions.

Series [4] deals with Hep3B2.1-7 hepatocellular carcinoma cells. The series can be described thus: Anti-proliferative activity, CellTiter-Glo, hepatocellular carcinoma cells. The series is classed as cell-based, human. As to conditions: 10 μM, 96 hrs, compared to vehicle. The protocol:
Cells originated from human hepatocellular carcinoma cell (Hep3B, HepG2, Huh-7, SK-Hep1), human normal cells (HEK293, HaCaT, Chang liver cell) and mouse fibroblast (NIH3T3) were purchased from ATCC (Manassas, Va., USA) and KCLB (Seoul, Korea). All the cells were maintained as recommended by the supplier. These cells (3×10^3/well) were seeded in 96 well plates. The next day, cells were treated with DMEM (vehicle) or 10 μM recombinant SOCS3 proteins for 96 hrs in the presence of serum (2%). Proteins were replaced daily. Cell growth and survival were evaluated with the CellTiter-Glo Cell Viability Assay (Promega, Madison, Wis.). Measurements using a Luminometer (Turner Designs, Sunnyvale, Calif.) were conducted following the manufacturer's protocol.
In general terms: Cellular ATP, detected with luciferase, serves as a proxy for viable cell number.

Series [5] relates to tumor tissues (Hep3B CDX, HepG2 CDX). The series can be described thus: Biomarker expression in xenograft tumor tissues (RT-PCR, Western blotting, IHC). The series is classed as in vivo, Balb/c nu/nu mice. The protocol: Tumor tissues were finely minced using a homogenizer according to the manufacturer's protocol of Hybrid-R (geneall, Korea), and then mRNA was isolated therefrom. 1 ug of mRNA thus separated was used to synthesize cDNA using an Accupower RT Premix (Bioneer, Korea). PCR was performed using 2 ul of cDNA and the primers of Table 45. PCR was performed using an Accupower PCR Premix (Bioneer, Korea) for 30 cycles consisting of denaturing (95° C.), annealing (60° C.), and extending (72° C.) for 45 seconds each.
Immunohistochemistry (IHC) Tissue samples were fixed in 4% Paraformaldehyde (Duksan, South Korea) for 3 days, dehydrated, cleared with xylene and embedded in Paraplast. Sections (6 μm thick) of tumor were placed onto poly-L-lysine coated slides. To block endogenous peroxidase activity, sections were incubated for 15 min with 3% H2O2 in methanol. After washing three times with PBS, slides were incubated for 30 min with blocking solution (5% fetal bovine serum in PBS). Mouse anti-Bax antibody (sc-7480, Santa Cruz Biotechnology, SantaCruz, Calif., USA) and rabbit anti-VEGF (ab46154, Abcam, Cambridge, UK) were diluted 1:1000 (to protein concentration 0.1 μg/ml) in blocking solution, applied to sections, and incubated at 4° C. for 24 hrs. After washing three times with PBS, sections were incubated with biotinylated mouse and rabbit IgG (Vector Laboratories, Burlingame, Calif., USA) at a 1:1000 dilution for 1 hr at room temperature, then incubated with avidin-biotinylated peroxidase complex using a Vectorstain ABC Kit (Vector Laboratories, Burlingame, Calif., USA) for 30 min at room temperature. After the slides are reacted with oxidized 3, 3-diaminobenzidine as a chromogen, they were counterstained with Harris hematoxylin (Sigma-Aldrich, USA). Permanently mounted slides were observed and photographed using a microscope equipped with a digital imaging system (ECLIPSE Ti, Nikon, Japan).
mRNA levels were analyzed using the tumor tissues removed at 2 weeks (Hep3B CDX, day 35) or 3 weeks (HepG2 CDX, day 42) after termination of drug administration to analyze changes in expressions of major biomarker genes by iCP-SOCS3.
Further, tumors removed at 2 weeks (Hep3B CDX, day 35) or 3 weeks (HepG2 CDX, day 42) after termination of drug administration were used to perform Western blotting and IHC, and increase or decrease in the expressions of cancer activity regulating factors by iCP-SOCS3 was observed.

[6] abbreviates: day 35 (Hep3B CDX) or day 42 (HepG2 CDX).

B1: HM165S3B: His-tagged recombinant protein of aMTD165, human SOCS3 and solubilization domain B; prototype improved cell-permeable SOCS3 (protein)
chain: MGSSHHHHHHSSGLVPRGSHMALAVPVALAIVPVTHSKFPAAGMETSRPLDTSLRLKTFSSKSEYQLVVNAVRKLQESGFYWSAVTGGEANLLLSAEPAGTFLIRDSSDQRHFFTLSVKTQSGTKNLRIQCEGGSFSLQSDPRSTQPVPRFDCVLKLVHHYMETPPPGAPSFPSPPTEPSSEVPEQPSAQPLPGSPPRRAYYIYSGGEKIPLVLSRPLSSNVATLQHLCRKTVNGHLDSYEKVTQLPGPIREFLDQYDAPLGSMAEQSDKDVKYYTLEEIQKHKDSKSTWVILHHKVYDLTKFLEEHPGGEEVLGEQAGGDATENFEDVGHSTDARELSKTYIIGELHPDDRSKIAKPSETL
modifications: Amino acid sequence of HM165S3B
Turning to B1, the “IFN-γ-induced phosphorylation of STAT1” value in series [1] is “suppressed IFN-γ-induced phosphorylation of STAT1 and STAT3”. Further, the “IFN-γ-induced phosphorylation of STAT3” value in series [2] (PANC-1, 10 ng/ml IFN-γ 15 min, 10 μM protein 2 hrs) was “suppressed IFN-γ-induced phosphorylation of STAT1 and STAT3”. For the same molecule, the “IFN-γ-induced phosphorylation of STAT3” value in series [2] (PANC-1, 10 ng/ml IFN-γ 15 min, 1, 5, 10 μM protein 2 hrs) is recorded as “suppressed IFN-γ-induced phosphorylation of STAT3 in dose dependent manner”. Further, the “effect on TNF-α secretion” value in series [3] is “showed the greatest inhibitory effect on cytokine secretion”. The “cytotoxicity to Hep3B2.1-7 cells” value in series [4] is reported as “over 80%”. Moreover, in series [5] (Western blotting and IHC), the “expression of Bax in tumor tissues” value is given as “increased”, the “expression of Bcl-2 in tumor tissues” value was “decreased”, the “expression of VEGF in tumor tissues” value was “remarkably decreased” and the “expression of p21 in tumor tissues” value is “increased”. Further, in series [5] (setting [6]), the “expression of GOLPH2 in tumor tissues” value is “remarkably reduced” and the “mRNA expressions of Bax, cyclinD1, cyclinE, PCNA, VEGF, FAK-related genes in tumor tissues” value is given as “significantly regulated”.
